Assay [1] has as its target Recombinant human MASP2 enzyme (fragment corresponding to amino acids 297-686, C-terminal His Tag) (human, UniProt O00187 297-686). In words: cell-based or functional assay.
In assay [2] the target is T1, Recombinant human MASP1 enzyme (fragment corresponding to amino acids 297-699, C-terminal His Tag) (human, UniProt P48740 297-699).
T1 sequence: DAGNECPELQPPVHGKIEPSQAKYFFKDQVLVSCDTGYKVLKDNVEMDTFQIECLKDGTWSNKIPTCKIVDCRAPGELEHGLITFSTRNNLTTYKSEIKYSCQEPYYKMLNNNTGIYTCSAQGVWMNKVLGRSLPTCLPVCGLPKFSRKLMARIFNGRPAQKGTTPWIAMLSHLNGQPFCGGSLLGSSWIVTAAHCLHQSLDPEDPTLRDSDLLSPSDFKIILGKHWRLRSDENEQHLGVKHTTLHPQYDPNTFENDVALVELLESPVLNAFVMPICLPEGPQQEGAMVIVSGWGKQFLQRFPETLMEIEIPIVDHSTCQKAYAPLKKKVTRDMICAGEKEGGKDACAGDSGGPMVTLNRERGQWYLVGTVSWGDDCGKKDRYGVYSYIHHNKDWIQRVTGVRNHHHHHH
In words: cell-based or functional assay.

The source of these data is patent US20210246166A1 (Bayer, published 2021).

Numbered stars: 1 amine (or outer) side, 2 acyl side, 3 side chain; on linkers, the order of the positions; unused ones are H or OH. Bridge positions count the residues as written; N and C are the ends. Square brackets hold non-standard residues; d marks the D form. Ends that are not written are not given here. * marks the point of attachment. X11 = (S)‑Piperidine‑3‑carboxylic acid, O=C([C@H]1CCCN([*:1])C1)[*:2]; NH(CH2CH2O)5CH2CO = O=C(COCCOCCOCCOCCOCCN[*:1])[*:2]; PEG9 = NCCOCCOCCOCCOCCOCCOCCOCCOCCOCCC(=O)O; Benzoyl(3-COOH) = O=C(O)c1cccc(C(=O)*)c1; Benzoyl(4-COOH) = O=C(O)c1ccc(C(=O)*)cc1; Nip(3R) = O=C([C@@H]1CCCN([*:1])C1)[*:2]; Oic = O=C(O)[C@@H]1C[C@@H]2CCCC[C@@H]2N1; PEG8 = NCCOCCOCCOCCOCCOCCOCCOCCOCCC(=O)O; tBuAla = CC(C)(C)C[C@H](N)C(=O)O; Pen = CC(C)(S)[C@H](N)C(=O)O; PEG2 = NCCOCCOCCC(=O)O; Sar = CNCC(=O)O

Chain of Recombinant human MASP2 enzyme (fragment corresponding to amino acids 297-686, C-terminal His Tag) (O00187 other isoform, or with tags, fused parts or gaps limits assumed): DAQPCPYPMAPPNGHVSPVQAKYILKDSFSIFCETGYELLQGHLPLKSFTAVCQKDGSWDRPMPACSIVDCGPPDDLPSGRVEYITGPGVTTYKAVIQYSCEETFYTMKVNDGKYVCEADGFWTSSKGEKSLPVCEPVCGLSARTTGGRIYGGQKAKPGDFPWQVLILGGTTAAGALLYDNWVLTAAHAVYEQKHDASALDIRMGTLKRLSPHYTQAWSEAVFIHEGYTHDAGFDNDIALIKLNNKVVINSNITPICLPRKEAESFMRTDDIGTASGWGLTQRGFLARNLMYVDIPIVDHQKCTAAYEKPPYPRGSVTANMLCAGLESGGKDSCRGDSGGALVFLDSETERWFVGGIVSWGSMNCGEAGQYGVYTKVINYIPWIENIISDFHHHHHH

As for [Sar]ICSRS[tBuAla]PPI[Pen]IP-{PEG8-OH} (disulfide 3-11) [((N-Me)G)-IC+SRS-((tBu)A)-PPI-(Pen)+IP-(PEG8(28 atoms))-OH], the “human MASP2 IC50” value in assay [1] was found to be 76 nM. In addition, the “human MASP1 IC50” value in assay [2] is 7.9 nM.

B1: ((N-Me)G)-IC+SRS-((tBu)A)-PPI-(Pen)+IP-(PEG5-CH2CO2H(18 atoms))-OH (peptide)
peptide: [Sar]ICSRS[tBuAla]PPI[Pen]IP[NH(CH2CH2O)5CH2CO]-OH
modifications: disulfide 3-11; N-terminus assumed
SMILES: CC[C@H](C)[C@H](NC(=O)CNC)C(=O)N[C@H]1CSSC(C)(C)[C@@H](C(=O)N[C@H](C(=O)N2CCC[C@H]2C(=O)NCCOCCOCCOCCOCCOCC(=O)O)[C@@H](C)CC)NC(=O)[C@H]([C@@H](C)CC)NC(=O)[C@@H]2CCCN2C(=O)[C@@H]2CCCN2C(=O)[C@H](CC(C)(C)C)NC(=O)[C@H](CO)NC(=O)[C@H](CCCNC(=N)N)NC(=O)[C@H](CO)NC1=O
Regarding B1, the “human MASP2 IC50” value in assay [1] came to 31 nM. In addition, the “human MASP1 IC50” value in assay [2] came to 2 nM.

B2: (4-Carboxybenzoic acid)-GIC+SRSLP-(Oic)-I-(Pen)+IPD-OH (peptide)
peptide: {Benzoyl(4-COOH)}-GICSRSLP[Oic]I[Pen]IPD-OH
modifications: disulfide 3-11
SMILES: CC[C@H](C)[C@H](NC(=O)CNC(=O)c1ccc(C(=O)O)cc1)C(=O)N[C@H]1CSSC(C)(C)[C@@H](C(=O)N[C@H](C(=O)N2CCC[C@H]2C(=O)N[C@@H](CC(=O)O)C(=O)O)[C@@H](C)CC)NC(=O)[C@H]([C@@H](C)CC)NC(=O)[C@@H]2C[C@@H]3CCCC[C@@H]3N2C(=O)[C@@H]2CCCN2C(=O)[C@H](CC(C)C)NC(=O)[C@H](CO)NC(=O)[C@H](CCCNC(=N)N)NC(=O)[C@H](CO)NC1=O
As to B2, the “human MASP2 IC50” value in assay [1] was 21 nM. Further, in assay [2], the “human MASP1 IC50” value worked out at 19.5 nM.

B3: ((S)-Piperidine-3-Carboxylic Acid)-IC+SRSLP-(Oic)-I-(Pen)+IPD-OH (peptide)
peptide: [X11]ICSRSLP[Oic]I[Pen]IPD-OH
modifications: disulfide 3-11; N-terminus assumed
SMILES: CC[C@H](C)[C@H](NC(=O)[C@H]1CCCNC1)C(=O)N[C@H]1CSSC(C)(C)[C@@H](C(=O)N[C@H](C(=O)N2CCC[C@H]2C(=O)N[C@@H](CC(=O)O)C(=O)O)[C@@H](C)CC)NC(=O)[C@H]([C@@H](C)CC)NC(=O)[C@@H]2C[C@@H]3CCCC[C@@H]3N2C(=O)[C@@H]2CCCN2C(=O)[C@H](CC(C)C)NC(=O)[C@H](CO)NC(=O)[C@H](CCCNC(=N)N)NC(=O)[C@H](CO)NC1=O
As to B3, the “human MASP2 IC50” value in assay [1] worked out at 32 nM. For the same molecule, the “human MASP1 IC50” value in assay [2] is 2.4 nM.

B4: ((N-Me)G)-IC+SRS-((tBu)A)-PPI-(Pen)+IP-((N-Me)G)-((N-Me)G)-((N-Me)G)-OH (peptide)
peptide: [Sar]ICSRS[tBuAla]PPI[Pen]IP[Sar][Sar][Sar]-OH
modifications: disulfide 3-11; N-terminus assumed
SMILES: CC[C@H](C)[C@H](NC(=O)CNC)C(=O)N[C@H]1CSSC(C)(C)[C@@H](C(=O)N[C@H](C(=O)N2CCC[C@H]2C(=O)N(C)CC(=O)N(C)CC(=O)N(C)CC(=O)O)[C@@H](C)CC)NC(=O)[C@H]([C@@H](C)CC)NC(=O)[C@@H]2CCCN2C(=O)[C@@H]2CCCN2C(=O)[C@H](CC(C)(C)C)NC(=O)[C@H](CO)NC(=O)[C@H](CCCNC(=N)N)NC(=O)[C@H](CO)NC1=O
As to B4, the “human MASP2 IC50” value in assay [1] is 47 nM. In addition, the “human MASP1 IC50” value in assay [2] worked out at 2.3 nM.

B5: ((N-Me)G)-IC+SRSLP-(Oic)-I-(Pen)+IPDA-OH (peptide)
peptide: [Sar]ICSRSLP[Oic]I[Pen]IPDA-OH
modifications: disulfide 3-11; N-terminus assumed
SMILES: CC[C@H](C)[C@H](NC(=O)CNC)C(=O)N[C@H]1CSSC(C)(C)[C@@H](C(=O)N[C@H](C(=O)N2CCC[C@H]2C(=O)N[C@@H](CC(=O)O)C(=O)N[C@@H](C)C(=O)O)[C@@H](C)CC)NC(=O)[C@H]([C@@H](C)CC)NC(=O)[C@@H]2C[C@@H]3CCCC[C@@H]3N2C(=O)[C@@H]2CCCN2C(=O)[C@H](CC(C)C)NC(=O)[C@H](CO)NC(=O)[C@H](CCCNC(=N)N)NC(=O)[C@H](CO)NC1=O
Regarding B5, the “human MASP2 IC50” value in assay [1] is 84 nM. Moreover, in assay [2], the “human MASP1 IC50” value is 2.6 nM.

B6: ((N-Me)G)-IC+SRSLP-(Oic)-I-(Pen)+IPY-OH (peptide)
peptide: [Sar]ICSRSLP[Oic]I[Pen]IPY-OH
modifications: disulfide 3-11; N-terminus assumed
SMILES: CC[C@H](C)[C@H](NC(=O)CNC)C(=O)N[C@H]1CSSC(C)(C)[C@@H](C(=O)N[C@H](C(=O)N2CCC[C@H]2C(=O)N[C@@H](Cc2ccc(O)cc2)C(=O)O)[C@@H](C)CC)NC(=O)[C@H]([C@@H](C)CC)NC(=O)[C@@H]2C[C@@H]3CCCC[C@@H]3N2C(=O)[C@@H]2CCCN2C(=O)[C@H](CC(C)C)NC(=O)[C@H](CO)NC(=O)[C@H](CCCNC(=N)N)NC(=O)[C@H](CO)NC1=O
In the case of B6, the “human MASP2 IC50” value in assay [1] was 120 nM. The “human MASP1 IC50” value in assay [2] turned out to be 3.2 nM.

B7: ((R)-Piperidine-3-Carboxylic Acid)-IC+SRSLP-(Oic)-I-(Pen)+IPD-OH (peptide)
peptide: [Nip(3R)]ICSRSLP[Oic]I[Pen]IPD-OH
modifications: disulfide 3-11; N-terminus assumed
SMILES: CC[C@H](C)[C@H](NC(=O)[C@@H]1CCCNC1)C(=O)N[C@H]1CSSC(C)(C)[C@@H](C(=O)N[C@H](C(=O)N2CCC[C@H]2C(=O)N[C@@H](CC(=O)O)C(=O)O)[C@@H](C)CC)NC(=O)[C@H]([C@@H](C)CC)NC(=O)[C@@H]2C[C@@H]3CCCC[C@@H]3N2C(=O)[C@@H]2CCCN2C(=O)[C@H](CC(C)C)NC(=O)[C@H](CO)NC(=O)[C@H](CCCNC(=N)N)NC(=O)[C@H](CO)NC1=O
In the case of B7, in assay [1], the “human MASP2 IC50” value stood at 110 nM. In addition, in assay [2], the “human MASP1 IC50” value came out at 5.2 nM.

B8: ((N-Me)G)-IC+SRSLP-(Oic)-I-(Pen)+IPT-OH (peptide)
peptide: [Sar]ICSRSLP[Oic]I[Pen]IPT-OH
modifications: disulfide 3-11; N-terminus assumed
SMILES: CC[C@H](C)[C@H](NC(=O)CNC)C(=O)N[C@H]1CSSC(C)(C)[C@@H](C(=O)N[C@H](C(=O)N2CCC[C@H]2C(=O)N[C@H](C(=O)O)[C@@H](C)O)[C@@H](C)CC)NC(=O)[C@H]([C@@H](C)CC)NC(=O)[C@@H]2C[C@@H]3CCCC[C@@H]3N2C(=O)[C@@H]2CCCN2C(=O)[C@H](CC(C)C)NC(=O)[C@H](CO)NC(=O)[C@H](CCCNC(=N)N)NC(=O)[C@H](CO)NC1=O
On to B8, for which, in assay [1], the “human MASP2 IC50” value was 180 nM. The “human MASP1 IC50” value in assay [2] is 3 nM.

B9: ((N-Me)G)-IC+SRS-((tBu)A)-PPI-(Pen)+IP-(PEG1(10 atoms))-OH (peptide)
peptide: [Sar]ICSRS[tBuAla]PPI[Pen]IP[PEG2]-OH
modifications: disulfide 3-11; N-terminus assumed
SMILES: CC[C@H](C)[C@H](NC(=O)CNC)C(=O)N[C@H]1CSSC(C)(C)[C@@H](C(=O)N[C@H](C(=O)N2CCC[C@H]2C(=O)NCCOCCOCCC(=O)O)[C@@H](C)CC)NC(=O)[C@H]([C@@H](C)CC)NC(=O)[C@@H]2CCCN2C(=O)[C@@H]2CCCN2C(=O)[C@H](CC(C)(C)C)NC(=O)[C@H](CO)NC(=O)[C@H](CCCNC(=N)N)NC(=O)[C@H](CO)NC1=O
As for B9, the “human MASP2 IC50” value in assay [1] stood at 39 nM. Besides, the “human MASP1 IC50” value in assay [2] turned out to be 2.3 nM.

B10: ((N-Me)G)-IC+SRSLP-(Oic)-I-(Pen)+IPGd-OH (peptide)
peptide: [Sar]ICSRSLP[Oic]I[Pen]IPG[dD]-OH
modifications: disulfide 3-11; N-terminus assumed
SMILES: CC[C@H](C)[C@H](NC(=O)CNC)C(=O)N[C@H]1CSSC(C)(C)[C@@H](C(=O)N[C@H](C(=O)N2CCC[C@H]2C(=O)NCC(=O)N[C@H](CC(=O)O)C(=O)O)[C@@H](C)CC)NC(=O)[C@H]([C@@H](C)CC)NC(=O)[C@@H]2C[C@@H]3CCCC[C@@H]3N2C(=O)[C@@H]2CCCN2C(=O)[C@H](CC(C)C)NC(=O)[C@H](CO)NC(=O)[C@H](CCCNC(=N)N)NC(=O)[C@H](CO)NC1=O
With B10, the “human MASP2 IC50” value in assay [1] was found to be 37 nM. Further, the “human MASP1 IC50” value in assay [2] came out at 3.4 nM.

B11: (3-Carboxybenzoic acid)-GIC+SRSLP-(Oic)-I-(Pen)+IPD-OH (peptide)
peptide: {Benzoyl(3-COOH)}-GICSRSLP[Oic]I[Pen]IPD-OH
modifications: disulfide 3-11
SMILES: CC[C@H](C)[C@H](NC(=O)CNC(=O)c1cccc(C(=O)O)c1)C(=O)N[C@H]1CSSC(C)(C)[C@@H](C(=O)N[C@H](C(=O)N2CCC[C@H]2C(=O)N[C@@H](CC(=O)O)C(=O)O)[C@@H](C)CC)NC(=O)[C@H]([C@@H](C)CC)NC(=O)[C@@H]2C[C@@H]3CCCC[C@@H]3N2C(=O)[C@@H]2CCCN2C(=O)[C@H](CC(C)C)NC(=O)[C@H](CO)NC(=O)[C@H](CCCNC(=N)N)NC(=O)[C@H](CO)NC1=O
On to B11, for which, in assay [1], the “human MASP2 IC50” value amounted to 43 nM. Besides, in assay [2], the “human MASP1 IC50” value was 58 nM.
Taken in the same sequence, the figures for [Sar]ICSRS[tBuAla]PPI[Pen]IP-{PEG9-OH} (disulfide 3-11) [((N-Me)G)-IC+SRS-((tBu)A)-PPI-(Pen)+IP-(PEG9(31 atoms))-OH] were 62 nM and 6.3 nM.

B12: ((N-Me)G)-IC+SRSLP-(Oic)-I-(Pen)+IPR-OH (peptide)
peptide: [Sar]ICSRSLP[Oic]I[Pen]IPR-OH
modifications: disulfide 3-11; N-terminus assumed
SMILES: CC[C@H](C)[C@H](NC(=O)CNC)C(=O)N[C@H]1CSSC(C)(C)[C@@H](C(=O)N[C@H](C(=O)N2CCC[C@H]2C(=O)N[C@@H](CCCNC(=N)N)C(=O)O)[C@@H](C)CC)NC(=O)[C@H]([C@@H](C)CC)NC(=O)[C@@H]2C[C@@H]3CCCC[C@@H]3N2C(=O)[C@@H]2CCCN2C(=O)[C@H](CC(C)C)NC(=O)[C@H](CO)NC(=O)[C@H](CCCNC(=N)N)NC(=O)[C@H](CO)NC1=O
As for B12, the “human MASP2 IC50” value in assay [1] stood at 48 nM. In assay [2], the “human MASP1 IC50” value worked out at 2.35 nM.
